Experimental data from paper PMC1626105.

Target: Elongin B, expressed in Saos-2 cells (UniProt Q15370)
Test: co-immunoprecipitation (IP: myc, IB: HA) with band densitometry
Conditions: Saos-2 cells co-transfected with LANA-myc and HA-Elo.BC; parent: est. 4.0; read off a plot

Chain of UniProt Q15370 (Q15370 whole entry): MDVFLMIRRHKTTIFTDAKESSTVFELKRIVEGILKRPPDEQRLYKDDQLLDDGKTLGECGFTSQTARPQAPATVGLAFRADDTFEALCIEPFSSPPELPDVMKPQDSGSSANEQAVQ

Substance	response
KSHV latency-associated nuclear antigen (LANA), full length, myc-tagged C217G	0.4 RD
KSHV latency-associated nuclear antigen (LANA), full length, myc-tagged L213G	0.4 RD
KSHV latency-associated nuclear antigen (LANA), full length, myc-tagged L213P; C217F	1.3 RD
